Assay results as given in the supplement of paper PMC10065799, “High-throughput profiling of sequence recognition by tyrosine kinases and SH2 domains using bacterial peptide display” (eLife, 2023).

How the values were obtained:
FGFR3 = FGFR3 (UniProt P22607); test: phosphorylation enrichment, bacterial display (enrichment ratio); higher = better substrate or ligand; peptides without Tyr show the background
Fyn = Fyn (UniProt P06241); test: as above
FGFR1 = FGFR1 (UniProt P11362); test: as above
EPHB1 = EPHB1 (UniProt P54762); test: as above
EPHB2 = EPHB2 (UniProt P29323); test: as above
Hck = Hck (UniProt P08631); test: as above
Jak2 = Jak2 (UniProt O60674); test: as above
c-Abl (mouse) = test: as above
AncSZ = test: as above
c-Src = test: as above
Fes = Fes (UniProt P07332); test: as above
Fer (mouse) = test: as above
MERTK = MERTK (UniProt Q12866); test: as above
c-Src SH2 = test: SH2 binding enrichment of the phosphorylated peptide, bacterial display (enrichment ratio); higher = better substrate or ligand; peptides without Tyr show the background
SHP2-C SH2 = test: as above
Grb2 SH2 = Grb2 SH2 (UniProt P62993); test: as above
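Wherever SH2 binding enrichment of the phosphorylated peptide, bacterial display is given: peptide library displayed on the E. coli surface as eCPX fusions, selected cells deep-sequenced, score is each peptide's frequency after selection divided by its frequency in the input.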
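Wherever phosphorylation enrichment, bacterial display is given: 11-residue human phosphosite peptides and single-mutation variants displayed on the E. coli surface, counted by deep sequencing, each peptide's frequency after selection divided by its frequency in the unselected input library; frequency after pTyr selection over input frequency; kinase dosed for 20-30% of maximal phosphorylation in three min.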

Sequence of Fes (P07332 whole entry, looked up): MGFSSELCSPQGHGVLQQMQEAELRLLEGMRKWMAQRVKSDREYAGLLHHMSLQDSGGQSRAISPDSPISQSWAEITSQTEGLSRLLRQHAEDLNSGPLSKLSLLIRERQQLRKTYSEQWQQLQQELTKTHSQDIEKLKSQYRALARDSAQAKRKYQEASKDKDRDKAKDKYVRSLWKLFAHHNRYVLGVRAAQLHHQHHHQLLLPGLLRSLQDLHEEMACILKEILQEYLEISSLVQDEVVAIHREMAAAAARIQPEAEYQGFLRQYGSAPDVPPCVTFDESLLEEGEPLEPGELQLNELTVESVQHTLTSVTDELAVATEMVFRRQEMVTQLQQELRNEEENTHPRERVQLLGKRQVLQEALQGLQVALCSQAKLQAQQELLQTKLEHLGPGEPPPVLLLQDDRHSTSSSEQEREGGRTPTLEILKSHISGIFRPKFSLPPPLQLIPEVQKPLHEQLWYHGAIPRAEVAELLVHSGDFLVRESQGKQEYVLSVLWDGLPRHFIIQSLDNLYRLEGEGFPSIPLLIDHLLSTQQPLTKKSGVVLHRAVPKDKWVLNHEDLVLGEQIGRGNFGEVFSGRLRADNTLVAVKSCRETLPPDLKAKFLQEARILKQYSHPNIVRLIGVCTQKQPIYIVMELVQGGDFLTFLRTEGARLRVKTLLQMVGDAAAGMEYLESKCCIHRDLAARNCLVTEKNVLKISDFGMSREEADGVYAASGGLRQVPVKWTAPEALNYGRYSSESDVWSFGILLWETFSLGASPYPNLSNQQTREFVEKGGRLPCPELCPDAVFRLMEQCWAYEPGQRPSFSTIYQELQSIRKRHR
Sequence of FGFR3 (P22607 whole entry, looked up): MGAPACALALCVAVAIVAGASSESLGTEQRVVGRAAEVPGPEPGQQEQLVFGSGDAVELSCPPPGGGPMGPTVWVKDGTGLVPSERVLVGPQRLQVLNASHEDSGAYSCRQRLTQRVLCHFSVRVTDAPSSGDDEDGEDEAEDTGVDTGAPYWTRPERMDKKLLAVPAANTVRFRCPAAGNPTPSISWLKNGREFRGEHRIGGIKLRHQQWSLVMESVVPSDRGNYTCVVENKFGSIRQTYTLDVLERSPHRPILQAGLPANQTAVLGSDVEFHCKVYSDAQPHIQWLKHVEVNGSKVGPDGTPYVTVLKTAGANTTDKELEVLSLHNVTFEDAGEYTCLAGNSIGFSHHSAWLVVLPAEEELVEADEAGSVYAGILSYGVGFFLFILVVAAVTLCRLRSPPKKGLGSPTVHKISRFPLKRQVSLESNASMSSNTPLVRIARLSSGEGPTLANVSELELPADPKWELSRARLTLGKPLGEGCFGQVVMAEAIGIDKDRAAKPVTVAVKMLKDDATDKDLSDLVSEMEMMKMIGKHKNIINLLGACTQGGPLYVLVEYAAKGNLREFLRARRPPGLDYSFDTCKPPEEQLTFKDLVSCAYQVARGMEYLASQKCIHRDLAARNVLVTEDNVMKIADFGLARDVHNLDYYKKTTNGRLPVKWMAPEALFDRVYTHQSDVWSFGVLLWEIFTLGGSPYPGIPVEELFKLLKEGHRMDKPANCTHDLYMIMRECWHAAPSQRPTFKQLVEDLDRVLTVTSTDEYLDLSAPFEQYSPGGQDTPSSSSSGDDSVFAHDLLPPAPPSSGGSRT
Sequence of Hck (P08631 whole entry, looked up): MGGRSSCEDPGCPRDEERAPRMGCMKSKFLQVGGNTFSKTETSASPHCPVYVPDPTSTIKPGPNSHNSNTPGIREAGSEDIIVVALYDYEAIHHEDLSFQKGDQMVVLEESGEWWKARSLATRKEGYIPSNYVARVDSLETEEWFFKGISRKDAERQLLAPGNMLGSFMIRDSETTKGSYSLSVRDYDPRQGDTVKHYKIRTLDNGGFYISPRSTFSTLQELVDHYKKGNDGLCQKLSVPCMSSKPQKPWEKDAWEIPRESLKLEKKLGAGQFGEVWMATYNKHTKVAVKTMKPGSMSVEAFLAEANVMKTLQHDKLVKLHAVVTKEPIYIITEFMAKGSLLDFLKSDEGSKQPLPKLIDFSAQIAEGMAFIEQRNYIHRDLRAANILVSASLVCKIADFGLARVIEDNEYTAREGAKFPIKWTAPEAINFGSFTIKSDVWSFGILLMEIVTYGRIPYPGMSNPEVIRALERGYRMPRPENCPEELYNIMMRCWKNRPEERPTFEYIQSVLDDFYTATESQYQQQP
Sequence of MERTK (Q12866 whole entry, looked up): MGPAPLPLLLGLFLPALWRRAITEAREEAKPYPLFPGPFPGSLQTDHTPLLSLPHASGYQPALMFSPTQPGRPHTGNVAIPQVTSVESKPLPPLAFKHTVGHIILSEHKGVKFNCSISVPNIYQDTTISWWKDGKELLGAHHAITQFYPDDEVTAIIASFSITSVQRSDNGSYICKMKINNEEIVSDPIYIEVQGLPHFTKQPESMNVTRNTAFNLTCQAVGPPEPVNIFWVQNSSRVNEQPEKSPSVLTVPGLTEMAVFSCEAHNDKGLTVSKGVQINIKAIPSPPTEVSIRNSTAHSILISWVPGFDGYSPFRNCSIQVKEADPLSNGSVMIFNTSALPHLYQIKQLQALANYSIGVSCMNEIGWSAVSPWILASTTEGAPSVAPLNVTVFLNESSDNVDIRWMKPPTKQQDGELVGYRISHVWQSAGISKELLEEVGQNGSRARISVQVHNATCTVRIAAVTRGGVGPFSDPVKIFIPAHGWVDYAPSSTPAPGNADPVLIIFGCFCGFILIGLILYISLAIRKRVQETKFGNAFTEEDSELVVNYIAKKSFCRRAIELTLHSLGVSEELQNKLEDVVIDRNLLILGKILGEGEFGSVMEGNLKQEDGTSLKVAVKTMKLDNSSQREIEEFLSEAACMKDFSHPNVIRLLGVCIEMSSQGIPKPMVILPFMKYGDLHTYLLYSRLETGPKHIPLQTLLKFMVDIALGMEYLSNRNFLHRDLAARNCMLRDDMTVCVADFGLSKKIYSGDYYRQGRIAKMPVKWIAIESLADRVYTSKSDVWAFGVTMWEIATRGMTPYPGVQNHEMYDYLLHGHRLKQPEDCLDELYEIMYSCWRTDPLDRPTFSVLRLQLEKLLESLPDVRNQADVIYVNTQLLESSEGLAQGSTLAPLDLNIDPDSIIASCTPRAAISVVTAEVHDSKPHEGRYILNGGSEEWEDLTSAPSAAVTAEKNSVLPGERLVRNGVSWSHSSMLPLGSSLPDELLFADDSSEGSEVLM
Sequence of Fyn (P06241 whole entry, looked up): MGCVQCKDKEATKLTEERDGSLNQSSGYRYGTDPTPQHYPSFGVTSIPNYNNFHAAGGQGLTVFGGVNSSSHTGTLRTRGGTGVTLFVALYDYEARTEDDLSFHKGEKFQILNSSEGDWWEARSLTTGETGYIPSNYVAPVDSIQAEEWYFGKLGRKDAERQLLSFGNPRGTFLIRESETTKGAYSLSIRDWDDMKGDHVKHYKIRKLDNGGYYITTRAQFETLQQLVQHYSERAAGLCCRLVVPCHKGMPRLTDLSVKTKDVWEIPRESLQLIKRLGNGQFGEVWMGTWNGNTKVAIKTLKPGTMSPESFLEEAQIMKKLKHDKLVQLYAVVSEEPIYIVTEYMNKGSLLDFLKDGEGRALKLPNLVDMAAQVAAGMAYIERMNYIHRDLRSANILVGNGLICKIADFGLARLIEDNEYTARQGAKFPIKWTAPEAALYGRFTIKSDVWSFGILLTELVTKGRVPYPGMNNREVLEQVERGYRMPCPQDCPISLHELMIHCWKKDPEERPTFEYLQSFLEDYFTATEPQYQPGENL
Sequence of EPHB1 (P54762 whole entry, looked up): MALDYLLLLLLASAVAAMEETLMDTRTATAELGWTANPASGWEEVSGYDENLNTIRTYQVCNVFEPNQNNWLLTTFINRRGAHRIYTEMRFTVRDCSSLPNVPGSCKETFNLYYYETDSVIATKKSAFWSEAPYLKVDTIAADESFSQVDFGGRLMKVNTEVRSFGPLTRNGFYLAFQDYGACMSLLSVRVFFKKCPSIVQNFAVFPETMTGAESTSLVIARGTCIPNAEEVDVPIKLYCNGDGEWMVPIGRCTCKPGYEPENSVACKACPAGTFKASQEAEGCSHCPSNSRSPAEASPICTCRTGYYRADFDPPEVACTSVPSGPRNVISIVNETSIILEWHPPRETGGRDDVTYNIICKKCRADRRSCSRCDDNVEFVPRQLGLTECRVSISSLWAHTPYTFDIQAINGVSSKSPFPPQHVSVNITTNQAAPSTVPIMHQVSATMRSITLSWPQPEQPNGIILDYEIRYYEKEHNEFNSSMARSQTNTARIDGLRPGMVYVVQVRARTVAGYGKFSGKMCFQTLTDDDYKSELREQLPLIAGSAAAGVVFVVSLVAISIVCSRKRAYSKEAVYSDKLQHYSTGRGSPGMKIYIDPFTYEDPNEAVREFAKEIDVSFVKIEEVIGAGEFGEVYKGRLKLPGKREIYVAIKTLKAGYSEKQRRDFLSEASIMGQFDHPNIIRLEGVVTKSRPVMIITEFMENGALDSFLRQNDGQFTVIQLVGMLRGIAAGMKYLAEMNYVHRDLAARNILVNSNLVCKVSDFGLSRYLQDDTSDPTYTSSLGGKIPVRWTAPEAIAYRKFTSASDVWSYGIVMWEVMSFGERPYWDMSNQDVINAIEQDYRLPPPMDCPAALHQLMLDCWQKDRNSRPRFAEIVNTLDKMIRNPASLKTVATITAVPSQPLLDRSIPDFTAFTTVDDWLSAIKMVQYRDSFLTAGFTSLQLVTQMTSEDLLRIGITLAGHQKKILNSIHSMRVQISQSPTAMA

| SH2 binding enrichment (c-Src SH2) | SH2 binding enrichment (SHP2-C SH2) | SH2 binding enrichment (Grb2 SH2) | Sequence | phosphorylation enrichment (FGFR3) | phosphorylation enrichment (Fyn) | phosphorylation enrichment (FGFR1) | phosphorylation enrichment (EPHB1) | phosphorylation enrichment (EPHB2) | phosphorylation enrichment (Hck) | phosphorylation enrichment (Jak2) | phosphorylation enrichment (c-Abl (mouse)) | phosphorylation enrichment (AncSZ) | phosphorylation enrichment (c-Src) | phosphorylation enrichment (Fes) | phosphorylation enrichment (Fer (mouse)) | phosphorylation enrichment (MERTK) |
| --- | --- | --- | --- | --- | --- | --- | --- | --- | --- | --- | --- | --- | --- | --- | --- | --- |
| 0.679 | 0.899 | 0.988 | APSHAYHRGVL [ANO1_Y981_G983R] | 0.472 | 0.424 | 0.395 | 0.363 | 0.355 | 0.385 | 0.534 | 0.51 | 0.507 | 0.426 | 0.583 | 0.411 | 0.38 |
| 2.99 | 0.668 | 0.826 | APTSGYQEFVH [IL4R_Y575] | 0.51 | 0.545 | 0.539 | 0.36 | 0.535 | 0.503 | 0.611 | 0.524 | 0.741 | 0.419 | 0.764 | 0.401 | 0.426 |
| 0.685 | 0.68 | 0.886 | AQINLYQDVML [ZNF806_Y33] | 1.29 | 1.15 | 1.14 | 15 | 8.39 | 2.05 | 1.01 | 0.928 | 1.25 | 1.05 | 2.83 | 15.4 | 2.17 |
| 0.852 | 1.08 | 1.15 | AQMAMYFWEMS [TRPM4_Y577_G582S] | 2.88 | 1.15 | 3.42 | 1.09 | 1.05 | 1.18 | 1.61 | 1.14 | 1.86 | 2.52 | 1.73 | 0.9 | 2.5 |
| 0.646 | 0.847 | 1.1 | ARKCKYFKKHE [NFIX_Y40_R38C] | 0.565 | 0.463 | 0.428 | 0.452 | 0.403 | 0.48 | 0.596 | 0.75 | 0.619 | 0.545 | 0.974 | 0.443 | 0.486 |
| 0.771 | 0.475 | 0.986 | ASELGYVFQAI [UROD_Y133] | 0.749 | 0.397 | 0.483 | 0.471 | 0.566 | 0.378 | 0.924 | 0.545 | 1.03 | 0.423 | 0.852 | 0.386 | 0.264 |
| 0.672 | 0.806 | 1.15 | ASLLPYFPAIM [IPO4_Y518] | 0.694 | 0.544 | 0.537 | 0.479 | 0.576 | 0.484 | 0.802 | 0.626 | 0.782 | 0.457 | 0.938 | 0.532 | 0.364 |
| 0.44 | 0.753 | 0.767 | ASTDYYKRGDF [PDHA1_Y243] | 0.501 | 0.368 | 0.436 | 0.287 | 0.409 | 0.465 | 0.754 | 0.559 | 0.685 | 0.5 | 0.71 | 0.321 | 0.369 |
| 0.858 | 0.871 | 0.82 | ATGGFYSYGGG [KRT24_Y120] | 0.659 | 2.39 | 0.506 | 0.881 | 0.885 | 1.8 | 0.858 | 0.763 | 0.906 | 1.26 | 1.11 | 4.4 | 11.6 |
| 0.674 | 0.825 | 0.935 | ATHSRYRLNDF [CLDN14_Y233_G232R_YF] | 0.308 | 0.329 | 0.307 | 0.296 | 0.337 | 0.449 | 0.413 | 0.546 | 0.419 | 0.36 | 0.706 | 0.349 | 0.391 |
| 0.536 | 0.524 | 0.872 | ATLDVYNPFET [SCAMP3_Y41] | 0.652 | 2.49 | 0.52 | 0.629 | 0.537 | 2.15 | 1.37 | 0.838 | 1.09 | 3.24 | 1.42 | 0.581 | 0.556 |
| 0.457 | 0.87 | 1.07 | AVNDFYAAKKT [CCDC178_Y422] | 0.551 | 0.508 | 0.648 | 0.464 | 0.372 | 0.5 | 0.548 | 0.61 | 0.629 | 0.429 | 0.703 | 0.381 | 0.449 |
| 0.509 | 0.497 | 0.646 | AVRVFYRKCPH [EPHB2_Y194_R199H] | 0.668 | 0.496 | 0.563 | 0.588 | 0.711 | 0.604 | 0.804 | 1.14 | 1.22 | 0.424 | 1.08 | 0.452 | 0.485 |
| 0.604 | 0.545 | 0.801 | CEHFSYFGMKA [SLC15A2_Y60_R57H_YF] | 0.902 | 0.379 | 1.61 | 0.555 | 0.516 | 0.444 | 3.82 | 0.605 | 0.879 | 0.673 | 0.845 | 0.452 | 0.469 |
| 3.43 | 0.902 | 0.942 | CLAKMYYSAVD [CP_Y539] | 0.936 | 0.572 | 0.812 | 1.02 | 0.701 | 0.708 | 0.956 | 0.674 | 1.14 | 0.722 | 1.18 | 1.18 | 2.33 |
| 0.603 | 0.672 | 0.895 | CPYNLYAAQLS [HGD_Y40_E42A] | 0.939 | 3.15 | 0.815 | 4.48 | 4.3 | 3.08 | 0.917 | 0.857 | 1.28 | 6.42 | 1.13 | 3.49 | 5.62 |
| 1.01 | 3.31 | 1.76 | TCRPPYYHRNC [HGD_Y333_F329C] | 0.493 | 0.093 | 0.398 |  |  | 0.218 | 0.162 | 0.197 | 0.243 | 0.251 | 0.713 | 0.233 | 0.235 |
